Legend:
[1] = target: tissue factor extracellular domains (human) (UniProt P13726); assay: SPR, TF immobilised, purified Fab as analyte, 1:1 model
D3H44 light chain P44W [2] = assay: LCCA (SPR), competitor L1 Y87G
D3H44 light chain Y87G = assay: LCCA (SPR), competitor L2 P44W
[3] = target: D3H44 light chain F118W_V133S; assay: LCCA (SPR), competitor L1 F116A
[4] = target: D3H44 light chain F118W_V133S; assay: LCCA (SPR), competitor L1 F116S
D3H44 light chain F116A [5] = assay: LCCA (SPR), competitor L2 F118W_V133S
D3H44 light chain F116S = assay: LCCA (SPR), competitor L2 F118W_V133S
D3H44 light chain F98A [6] = assay: LCCA (SPR), competitor L1 P44W
D3H44 light chain F98L [7] = assay: LCCA (SPR), competitor L1 P44W
D3H44 light chain F98W [8] = assay: LCCA (SPR), competitor L1 P44W
D3H44 light chain P44W [9] = assay: LCCA (SPR), competitor L2 F98A
D3H44 light chain P44W [10] = assay: LCCA (SPR), competitor L2 F98W
D3H44 light chain P44W [11] = assay: LCCA (SPR), competitor L2 F98L
D3H44 light chain P44W [12] = assay: LCCA (SPR), competitor L1 F98L
D3H44 light chain F98L [13] = assay: LCCA (SPR), competitor L2 P44W
[14] = target: D3H44 light chain F118W_V133S; assay: LCCA (SPR), competitor L1 WT
[15] = target: D3H44 light chain, wild type; assay: LCCA (SPR), competitor L2 F118W_V133S
D3H44 light chain F116A [16] = assay: LCCA (SPR), competitor L1 WT
[17] = target: D3H44 light chain, wild type; assay: LCCA (SPR), competitor L2 F116A
D3H44 light chain F98A [18] = assay: LCCA (SPR), competitor L1 Q38R
[19] = target: D3H44 light chain L89R_F98W; assay: LCCA (SPR), competitor L2 F98Y
D3H44 light chain F98Y = assay: LCCA (SPR), competitor L1 L89R_F98W
[20] = target: D3H44 light chain Q38N_T85K; assay: LCCA (SPR), competitor L1 Q38N_T85E
[21] = target: D3H44 light chain Q38N_T85E; assay: LCCA (SPR), competitor L2 Q38N_T85K
D3H44 light chain F98W [22] = assay: LCCA (SPR), competitor L1 F98L
D3H44 light chain F98L [23] = assay: LCCA (SPR), competitor L2 F98W

Chain of tissue factor extracellular domains (human) (P13726 33-251): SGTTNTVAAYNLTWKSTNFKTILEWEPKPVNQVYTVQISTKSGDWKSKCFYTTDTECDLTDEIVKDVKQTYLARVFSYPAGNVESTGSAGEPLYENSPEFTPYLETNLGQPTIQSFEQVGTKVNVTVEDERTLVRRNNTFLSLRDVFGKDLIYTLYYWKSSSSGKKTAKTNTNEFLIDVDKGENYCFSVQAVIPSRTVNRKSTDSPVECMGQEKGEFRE
Chain of D3H44 light chain Y87G (light, as listed by the source limits assumed): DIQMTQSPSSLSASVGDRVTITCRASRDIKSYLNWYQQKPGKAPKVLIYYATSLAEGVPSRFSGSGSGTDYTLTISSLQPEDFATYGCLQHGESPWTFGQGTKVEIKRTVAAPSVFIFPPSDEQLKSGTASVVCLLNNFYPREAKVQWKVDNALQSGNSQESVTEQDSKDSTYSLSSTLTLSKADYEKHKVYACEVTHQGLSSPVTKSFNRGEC
Chain of D3H44 light chain, wild type (light, as listed by the source): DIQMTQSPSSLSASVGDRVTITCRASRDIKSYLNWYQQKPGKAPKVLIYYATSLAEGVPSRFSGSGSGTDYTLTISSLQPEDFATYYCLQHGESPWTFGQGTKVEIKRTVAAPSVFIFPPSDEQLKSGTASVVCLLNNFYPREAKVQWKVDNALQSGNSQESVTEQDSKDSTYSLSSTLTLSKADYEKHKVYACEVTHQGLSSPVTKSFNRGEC
Chain of D3H44 light chain L89R_F98W (light, as listed by the source): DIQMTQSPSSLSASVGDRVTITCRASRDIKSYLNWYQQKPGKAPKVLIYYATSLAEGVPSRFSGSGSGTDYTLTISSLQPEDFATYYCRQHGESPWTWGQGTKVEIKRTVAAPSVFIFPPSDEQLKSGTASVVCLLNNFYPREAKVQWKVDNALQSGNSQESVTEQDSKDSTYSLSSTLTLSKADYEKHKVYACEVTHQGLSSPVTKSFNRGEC
Chain of D3H44 light chain F98Y (light, as listed by the source limits assumed): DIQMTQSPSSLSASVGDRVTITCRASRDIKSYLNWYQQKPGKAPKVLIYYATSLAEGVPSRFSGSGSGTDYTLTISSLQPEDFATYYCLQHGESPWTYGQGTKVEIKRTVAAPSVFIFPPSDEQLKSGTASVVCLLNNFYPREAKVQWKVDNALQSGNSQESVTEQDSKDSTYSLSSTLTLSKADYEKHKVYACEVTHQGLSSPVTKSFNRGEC
Chain of D3H44 light chain Q38N_T85K (light, as listed by the source limits assumed): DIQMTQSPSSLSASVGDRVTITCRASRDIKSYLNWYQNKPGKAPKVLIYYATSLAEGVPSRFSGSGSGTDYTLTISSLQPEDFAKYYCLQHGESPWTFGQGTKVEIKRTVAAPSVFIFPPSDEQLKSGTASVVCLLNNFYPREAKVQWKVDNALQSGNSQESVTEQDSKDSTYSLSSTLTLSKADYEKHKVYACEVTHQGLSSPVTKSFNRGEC
Chain of D3H44 light chain Q38N_T85E (light, as listed by the source limits assumed): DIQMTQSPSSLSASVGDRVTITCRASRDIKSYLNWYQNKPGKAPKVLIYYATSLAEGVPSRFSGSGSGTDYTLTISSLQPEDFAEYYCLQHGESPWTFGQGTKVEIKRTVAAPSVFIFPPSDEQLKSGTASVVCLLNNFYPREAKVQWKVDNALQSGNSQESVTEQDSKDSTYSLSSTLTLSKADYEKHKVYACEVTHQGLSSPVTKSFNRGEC

Substance: D3H44 Fab Design 11 H2-L2 (H2 F174V_P175S_S188G, L2 S176L)
- Kd [1]: 0.04 nM

Substance: D3H44 heavy chain (Fab format) L45W
- H1 L2 of H1 L1:H1 L2 (screen) (D3H44 light chain P44W [2]): 23.9
- H1 L2 of H1 L1:H1 L2 (verification) (D3H44 light chain P44W [2]): 31
- H1 L1 of H1 L1:H1 L2 (screen) (D3H44 light chain Y87G): 54.5
- H1 L1 of H1 L1:H1 L2 (verification) (D3H44 light chain Y87G): 58.1

Substance: D3H44 heavy chain (Fab format) V190G
- H1 L2 of H1 L1:H1 L2 (screen) [3]: 35.3
- H1 L2 of H1 L1:H1 L2 (screen) [4]: 24.1
- H1 L2 of H1 L1:H1 L2 (verification) [4]: 50.8
- H1 L1 of H1 L1:H1 L2 (screen) (D3H44 light chain F116A [5]): 55.1
- H1 L1 of H1 L1:H1 L2 (screen) (D3H44 light chain F116S): 78.2
- H1 L1 of H1 L1:H1 L2 (verification) (D3H44 light chain F116S): 25.9

Substance: D3H44 heavy chain (Fab format) V37A_W103V
- H1 L2 of H1 L1:H1 L2 (screen) (D3H44 light chain F98A [6]): 25.3
- H2 L2 of H2 L2:H2 L1 (screen) (D3H44 light chain F98L [7]): 54.8
- H2 L2 of H2 L2:H2 L1 (verification) (D3H44 light chain F98L [7]): 52
- H2 L2 of H2 L2:H2 L1 (screen) (D3H44 light chain F98W [8]): 53
- H2 L2 of H2 L2:H2 L1 (verification) (D3H44 light chain F98W [8]): 23.3
- H1 L1 of H1 L1:H1 L2 (screen) (D3H44 light chain P44W [9]): 58.9
- H2 L1 of H2 L2:H2 L1 (screen) (D3H44 light chain P44W [10]): 18.6
- H2 L1 of H2 L2:H2 L1 (verification) (D3H44 light chain P44W [10]): 44.7
- H2 L1 of H2 L2:H2 L1 (screen) (D3H44 light chain P44W [11]): 22.8
- H2 L1 of H2 L2:H2 L1 (verification) (D3H44 light chain P44W [11]): 23

Substance: D3H44 heavy chain (Fab format) V37A_W103H
- H2 L2 of H2 L2:H2 L1 (screen) (D3H44 light chain P44W [12]): 66.5
- H1 L2 of H1 L1:H1 L2 (screen) (D3H44 light chain F98A [6]): 8.79
- H1 L2 of H1 L1:H1 L2 (verification) (D3H44 light chain F98A [6]): 12.3
- H1 L2 of H1 L1:H1 L2 (screen) (D3H44 light chain F98W [8]): 19.6
- H2 L2 of H2 L2:H2 L1 (screen) (D3H44 light chain P44W [2]): 53.1
- H1 L1 of H1 L1:H1 L2 (screen) (D3H44 light chain P44W [9]): 67.5
- H1 L1 of H1 L1:H1 L2 (verification) (D3H44 light chain P44W [9]): 47.1
- H1 L1 of H1 L1:H1 L2 (screen) (D3H44 light chain P44W [10]): 53.6
- H2 L1 of H2 L2:H2 L1 (screen) (D3H44 light chain F98L [13]): 6.38
- H2 L1 of H2 L2:H2 L1 (screen) (D3H44 light chain Y87G): 18.9

Substance: D3H44 heavy chain (Fab format) A139I_V190S
- H1 L2 of H1 L1:H1 L2 (screen) [14]: 28
- H1 L2 of H1 L1:H1 L2 (verification) [14]: 8.2
- H1 L2 of H1 L1:H1 L2 (screen) [3]: 25.1
- H1 L2 of H1 L1:H1 L2 (verification) [3]: 0.759
- H1 L1 of H1 L1:H1 L2 (screen) (D3H44 light chain F116A [5]): 64.7
- H1 L1 of H1 L1:H1 L2 (verification) (D3H44 light chain F116A [5]): 59.8
- H1 L1 of H1 L1:H1 L2 (screen) [15]: 67.1
- H1 L1 of H1 L1:H1 L2 (verification) [15]: 77

Substance: D3H44 heavy chain (Fab format) V37I_F100W
- H2 L2 of H2 L2:H2 L1 (screen) (D3H44 light chain F98L [7]): 67.3
- H2 L2 of H2 L2:H2 L1 (verification) (D3H44 light chain F98L [7]): 30.5
- H2 L1 of H2 L2:H2 L1 (screen) (D3H44 light chain P44W [11]): 26.9
- H2 L1 of H2 L2:H2 L1 (verification) (D3H44 light chain P44W [11]): 47.9

Substance: D3H44 heavy chain (Fab format) A139W_V190S
- H2 L2 of H2 L2:H2 L1 (screen) (D3H44 light chain F116A [16]): 66.9
- H2 L2 of H2 L2:H2 L1 (verification) (D3H44 light chain F116A [16]): 43
- H1 L2 of H1 L1:H1 L2 (screen) [3]: 33.4
- H1 L2 of H1 L1:H1 L2 (verification) [3]: 0.722
- H1 L2 of H1 L1:H1 L2 (screen) [4]: 15.7
- H1 L2 of H1 L1:H1 L2 (verification) [4]: 20.2
- H2 L1 of H2 L2:H2 L1 (screen) [17]: 21.1
- H2 L1 of H2 L2:H2 L1 (verification) [17]: 22.3
- H1 L1 of H1 L1:H1 L2 (screen) (D3H44 light chain F116A [5]): 68.7
- H1 L1 of H1 L1:H1 L2 (verification) (D3H44 light chain F116A [5]): 83.8
- H1 L1 of H1 L1:H1 L2 (screen) (D3H44 light chain F116S): 84.8
- H1 L1 of H1 L1:H1 L2 (verification) (D3H44 light chain F116S): 55.4

Substance: D3H44 heavy chain (Fab format) Q39E
- H1 L2 of H1 L1:H1 L2 (screen) (D3H44 light chain F98A [18]): 29.7
- H1 L2 of H1 L1:H1 L2 (verification) (D3H44 light chain F98A [18]): 7.2

Substance: D3H44 heavy chain (Fab format) V37S_A97K
- H2 L1 of H2 L2:H2 L1 (screen) [19]: 0.5
- H2 L1 of H2 L2:H2 L1 (verification) [19]: 11.7
- H2 L2 of H2 L2:H2 L1 (screen) (D3H44 light chain F98Y): 71.6
- H2 L2 of H2 L2:H2 L1 (verification) (D3H44 light chain F98Y): 65.6

Substance: D3H44 Fab Design 31 H1-L1 (H1 Q39D_A141G_V185A, L1 Q38R_L135W)
- Kd [1]: 0.025 nM

Substance: D3H44 heavy chain (Fab format) A139I
- H2 L2 of H2 L2:H2 L1 (screen) [14]: 51.9
- H2 L1 of H2 L2:H2 L1 (screen) [15]: 28.9

Substance: D3H44 Fab Design 30 H1-L1 (H1 D148G_Q175K, L1 Q124E_Q160E_T180E)
- Kd [1]: 0.024 nM

Substance: D3H44 Fab Design 13 H2-L2 (H2 K145T_Q179D_S188F, L2 V133A_Q160K_T178R)
- Kd [1]: 0.086 nM

Substance: D3H44 heavy chain (Fab format) Q39K
- H1 L2 of H1 L1:H1 L2 (screen) [20]: 30.1
- H1 L2 of H1 L1:H1 L2 (verification) [20]: 21.7
- H1 L1 of H1 L1:H1 L2 (screen) [21]: 54.8
- H1 L1 of H1 L1:H1 L2 (verification) [21]: 66.5

Substance: D3H44 heavy chain (Fab format) V37W_W103F
- H1 L2 of H1 L1:H1 L2 (screen) (D3H44 light chain F98W [22]): 14.8
- H1 L2 of H1 L1:H1 L2 (verification) (D3H44 light chain F98W [22]): 27.7
- H1 L1 of H1 L1:H1 L2 (screen) (D3H44 light chain F98L [23]): 64.2
- H1 L1 of H1 L1:H1 L2 (verification) (D3H44 light chain F98L [23]): 38.2
